These results are taken from patent publication US20260132208A1 (DOMAIN THERAPEUTICS, published 2026).

Where “and” joins values, the source holds several entries; their conditions need not be identical. Equal entries are not always repeated. Where two headings read alike, the source gives them in different places.

Test [1] deals with T1, human CCR8 (human, UniProt P51685 1-355). As to the kind of experiment: cell-based or functional assay.
Another test addresses T2, pm6 (Y16 and Y17 sulfated; Y15 not sulfated).
T2 construct: also called sulfated CCR8 N-terminal peptide pm6
As to the kind of experiment: ELISA on coated peptide [cont.]. Put shortly:
(§1)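 Steps: peptide coating (500 ng/ml, carbonate/bicarbonate); anti-CCR8 mAb added at 1 μg/mL and diluted 1/10; room-temperature incubation of 90 min; washes to remove unbound antibody; 15 min TMB; OD measurement.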

The next test deals with T3, pwt1 (none (unmodified peptide)).
T3 construct: also called unmodified CCR8 N-terminal peptide
As to the kind of experiment: ELISA on coated peptide [cont.]. Put shortly:
as §1

The target in the next test is T4, pm5 (Y15 and Y17 sulfated; Y16 not sulfated).
T4 construct: also called sulfated CCR8 N-terminal peptide pm5
As to the kind of experiment: ELISA on coated peptide [cont.]. Put shortly:
as §1
A general note: In an ELISA, binding on a coated surface is turned into a signal by an enzyme label.

A further test has as its target T5, pm8 (Y15, Y16 and Y17 sulfated).
T5 construct: also called sulfated CCR8 N-terminal peptide pm8
As to the kind of experiment: ELISA on coated peptide [cont.]. An outline of the steps:
as §1

A further test addresses T6, pm3 (Y17 sulfated; Y15 and Y16 not sulfated).
T6 construct: also called sulfated CCR8 N-terminal peptide pm3
As to the kind of experiment: ELISA on coated peptide [cont.]. Put shortly: as §1

A further test deals with T7, pm2 (sulfated tyrosine(s) among Y15, Y16, Y17; which ones is not told (the underlining of Table 1 is lost in the text)).
T7 construct: also called sulfated CCR8 N-terminal peptide pm2
As to the kind of experiment: ELISA on coated peptide [cont.]. An outline of the steps:
as §1

The next test concerns the target T8, pm1 (sulfated tyrosine(s) among Y15, Y16, Y17; which ones is not told (the underlining of Table 1 is lost in the text)).
T8 construct: also called sulfated CCR8 N-terminal peptide pm1
As to the kind of experiment: ELISA on coated peptide [cont.]. Put shortly: as §1

The target of a further test is T9, pm4 (sulfated tyrosine(s) among Y15, Y16, Y17; which ones is not told (the underlining of Table 1 is lost in the text)).
T9 construct: also called sulfated CCR8 N-terminal peptide pm4
Put plainly: ELISA on coated peptide [cont.]. An outline of the steps:
as §1

Test [2] has as its target T1, human CCR8. As to the kind of experiment: flow cytometry, HUT78 cells (endogenous CCR8). As for the experimental part:
In human activated T cells model, prior to mAb incubation, cells were first incubated with 200 nM of hCCL1 (R&D Systems, Minneapolis, MN, USA) or buffer PBS (Invitrogen by Thermofisher Scientific, Illkirch-Graffenstaden, France) supplemented by 2% Fetal Bovine Serum (Invitrogen by Thermofisher Scientific, Illkirch-Graffenstaden, France) and 2 mM EDTA (Invitrogen by Thermofisher Scientific, Illkirch-Graffenstaden, France) during 1 hour at 4° C. To determine EC50 value, 8 concentrations of anti-CCR8 mAb were tested. Unbound antibodies were washed away with PBS (Invitrogen by Thermofisher Scientific, Illkirch-Graffenstaden, France) supplemented by 2% Fetal Bovine Serum (Invitrogen by Thermofisher Scientific, Illkirch-Graffenstaden, France) and 2 mM EDTA (Invitrogen by Thermofisher Scientific, Illkirch-Graffenstaden, France). Subsequently, cells are centrifuged (5 min at 400 g) and bound antibody is detected with F(ab′)2-Goat anti-Mouse IgG (H+L) Cross-Adsorbed Secondary Antibody, Alexa Fluor 488 (dilution 1/500) (Invitrogen by Thermofisher Scientific, Illkirch-Graffenstaden, France) or with F(ab′)₂-Goat anti-Human IgG Fc Secondary Antibody, PE (Invitrogen by Thermofisher Scientific, Illkirch-Graffenstaden, France) (dilution 1/1000) at 4° C. for 30 min. Detection reagent is washed away and cells are centrifuged (5 min at 400 g) and resuspended in 30 μL PBS. Bound detection antibody is quantified on a MacsQuant16 (Miltenyi, Gladbach, Germany) (B1 or B2 channel, 5000 events per acquisition). During the experiment, the respective isotype mAb controls (mouse IgG1, mouse IgG2a, mouse IgG2b, mouse IgG3 or human IgG1) (Biolegend, Amsterdam, The Netherlands) are included to exclude any unspecific binding events. EC50 values were determined via nonlinear fit “log (agonist) vs.response—Variable slope (four parameters)” function of Graphpad prism. EC50 values were not constantly determined in the same experiments.
Anti-CCR8 mAb cellular reactivity was also evaluated on native human CCR8 from HUT78 cell line by flow cytometry. In Table 4.3, Mean Fluorescence Intensity (Fold change to isotype control), the percentage of labelled cells and EC50 in nM of some anti-CCR8 antibodies are presented.
(In general: In flow cytometry, cells or beads pass a laser one at a time.)

Test [3] has as its target T1, human CCR8. Put plainly: cell-based or functional assay. This is another data set of the same source.
For test [4], the target named is T1, human CCR8. Put plainly: cell-based or functional assay. The source holds these as a separate data set.
Test [5] addresses T1, human CCR8. As to the kind of experiment: cell-based or functional assay. The source holds these as a separate data set.
For test [6], the target named is T10, human CCR8 with a SNAP-tag at the N-terminus (human, UniProt P51685 1-355, SNAP-tag labelled covalently with Lumi4-Terbium).
T10 construct: also called hCCR8 SNAP-tag; CCR8 SNAP-tag
Put plainly: HTRF Tag-lite, inhibition of hCCL1-AF647 binding to SNAP-hCCR8 on HEK-293 cells. As for the experimental part: (§2) The inhibition of CCL1 binding to hCCR8 was evaluated with the Tag-Lite® technology from Cisbio (Revvity). Human CCR8 is engineered with a SNAP-tag at the N-terminus of the GPCR. hCCR8 SNAP-tag is transiently transfected on HEK-293 cell line using FuGene® (Promega, Madison, WI, USA). 48 hours after transfection, cells are labeled with the substrate Lumi4-Terbium® (Cisbio, Codolet, France) which covalently reacts with the SNAP-tag, for 1 h at 37° C. Thawed or freshly labeled cells are plated in a 384 low volume white plate (GREINER Bio-One, Courtaboeuf, France) (10000 cells/well/10 μl). […] The Kd was previously obtained in a saturation binding assay on the same cells. […] The plate is next incubated at 21° C. for 2 h. Detection of HTRF signal is performed on the multiplate reader EnVision (PerkinElmer, Waltham, MA, USA). The HTRF (665/620) ratio is calculated by EnVision software, the data exported are considered as the total binding. The specific binding is calculated then by subtracting the non-specific signal from the total binding. The Ki and IC₅₀ are calculated using the “One site-Fit Ki” and “One site-FitlogIC50” from GraphPad Prism 9 (Graphpad Software, San Diego, CA, USA), respectively.
(In general: TR-FRET usually uses a lanthanide donor and a delayed reading to cut background.)

The target in test [7] is T1, human CCR8. As to the kind of experiment: cell-based or functional assay. The source holds these as a separate data set.
In test [8] the target is T1, human CCR8. As to the kind of experiment: cell-based or functional assay. This is another data set of the same source.
Test [9] has as its target T10, human CCR8 with a SNAP-tag at the …. As to the kind of experiment: HTRF Tag-lite, inhibition of hCCL1-AF647 binding to SNAP-hCCR8 on HEK-293 cells. As for the experimental part: as §2
The source holds these as a separate data set.

A word on the IC50: it is the point on the concentration scale where inhibition reaches its midpoint. A higher IC50 goes with weaker potency in that assay.

T5 sequence (peptide, as listed by the source): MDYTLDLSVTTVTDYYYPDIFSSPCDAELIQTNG
T7 sequence (peptide, as listed by the source): as above
T9 sequence (peptide, as listed by the source): as above
T6 sequence (peptide, as listed by the source): as above
T4 sequence (peptide, as listed by the source): as above
T2 sequence (peptide, as listed by the source): as above
T8 sequence (peptide, as listed by the source): as above
T3 sequence (peptide, as listed by the source): as above

B1: anti-CCR8 mAb 1-21 (antibody, human IgG1, kappa)
heavy: not shown
light: DIVMTQAAPSLSVTPGESASISCTSSKSLLHSNGNTYLYWFLQKPGQSPQLLIYRMSNLASGVPDRFSGSGSGTAFTLKISRVEAEDVGVYYCMQHREYPFTFGSGTKLEIKRTVAAPSVFIFPPSDEQLKSGTASVVCLLNNFYPREAKVQWKVDNALQSGNSQESVTEQDSKDSTYSLSSTLTLSKADYEKHKVYACEVTHQGLSSPVTKSFNRGEC
notes: Humanized mAb; Fc from human IgG1 allotype G1m17 with the terminal lysine deleted and the SDIE mutations (already in the entry)
As to B1, the “extrapolated top plateau of hCCL1 curve with 5 µg/mL mAb, protocol #3” value with human CCR8 [1] was 138000 % of hCCL1 (100 nM). Besides, the binding result with pm6 is “binds”. Further, the binding result with pwt1 is listed as “binds”. Besides, the binding result with pm5 is recorded as “binds”. For the same molecule, the binding result in the test with pm8 is “binds”. For the same molecule, the binding result with pm3 is reported as “binds”. For the same molecule, in the test with pm2, the binding result is “binds”. The binding result with pm1 was “binds”. Also, the binding result with pm4 is “binds”. Further, the “% of labelled cells” value with human CCR8 [2] stood at 32%. The “ADCP % max phagocytosis, HUT78 targets, MDM donor 9” value with human CCR8 [3] stood at 9.65%. Moreover, in the test with human CCR8 [4], the “IC50 of CCL1-induced hCCR8 Gi2 signaling (BRET, HEK-293)” value is 0.035 µg/mL and 0.232 nM. Further, in the test with human CCR8 [5], the “ADCC % max lysis, HUT78 targets, NK donor 1” value amounted to 30%; the “ADCC % max lysis, HUT78 targets, NK donor 2” value is 28%; the “ADCC EC50, HUT78 targets, NK donor 1” value worked out at 6.43 pM; the “ADCC EC50, HUT78 targets, NK donor 2” value was 0.42 pM. For the same molecule, in test [6], the IC50 was 0.09 µg/mL and 0.6 nM; the Ki was 0.05 µg/mL and 0.3 nM. For the same molecule, in the test with human CCR8 [7], the “residual hCCL1 (100 nM) Gi2 response, protocol #2, mAb 0.08 µg/mL” value was 74%; the “residual hCCL1 (100 nM) Gi2 response, protocol #2, mAb 0.4 µg/mL” value was found to be 54%; the “residual hCCL1 (100 nM) Gi2 response, protocol #2, mAb 10 µg/mL” value is 40%; the “residual hCCL1 (100 nM) Gi2 response, protocol #3, mAb 0.05 µg/mL” value came out at 89%. Besides, in the test with human CCR8 [7], the “residual hCCL1 (100 nM) Gi2 response, protocol #3, mAb 0.5 µg/mL” value turned out to be 63% and the “residual hCCL1 (100 nM) Gi2 response, protocol #3, mAb 5 µg/mL” value came to 51%. In addition, in the test with human CCR8 [8], the “IC50 of CCL1-induced hCCR8 Gi2 signaling (BRET), pH 6.5” value is 0.025 µg/ml and 0.165 nM; the “IC50 of CCL1-induced hCCR8 Gi2 signaling (BRET), pH 7.4” value is 0.035 µg/ml and 0.232 nM.

B2: anti-CCR8 mAb 1-19 (antibody, human IgG1, kappa, V domains shown)
VH: EVQLVESGGGLVQPGRSLRLSCTASGFTFNTYAMNWVRQAPGKGLEWVARIRSKSNNYATYYAASVKGRFTISRDDSKSIAYLQMNSLKTEDTAVYYCVRGREAYYRYDGGYYAMDVWGQGTTVTVSS
VL: DIVMTQAAPSLPVTPGESASISCRSSKSLLHSNGNTYLYWFLQKPGQSPQLLIYRMSNLASGVPDRFSGSGSGTAFTLKISRVEAEDVGVYYCMQHLEYPFTFGSGTKLEIKR
notes: Humanized mAb, human IgG1 / kappa
For B2, the IC50 in [9] was 100 to 1000 pM; in [6], 0.02 µg/mL. For the same molecule, the binding result in the test with pm6, with pm5, in the test with pm8, with pm3, with pm2 and in the test with pm1 was “binds” each time. Also, the binding result with pm4 was “binds”. In the test with human CCR8 [4], the “IC50 of CCL1-induced hCCR8 Gi2 signaling (BRET, HEK-293)” value was 0.048 µg/mL and 0.318 nM. Besides, in [6], the Ki is 0.01 µg/mL and 0.06 nM.
